Laboratory results: patent US20250243263A1 (VOYAGER THERAPEUTICS, published 2025)
Where no end group is shown, it is not given here. [ ]: non-standard residue; d: D form. pT = C[C@@H](OP(=O)(O)O)[C@H](N)C(=O)O

B1: VY020 (antibody, V domains shown)
VH: EVQLVESGGGLVQPGGSLRLSCAASGFTFSSYSMNWVRQAPGKGLEWISYISSSNSTIKYADSVKGRFTISRDNAKNSLYLQMNSLRDEDTAVYYCARRSLGDYWGQGTLVIVSS
VL: EIVLTQSPATLSLSPGERATLSCRASQSVSSYLAWYLQKPGQAPRLLIYDVSNRATGIPARFSGSGSGTDFTLTISRLEPEDFAVYYCQQRRNWPYTFGQGTKLEIK
B2: VY003 (antibody, V domains shown)
VH: EVQMVESGGGLVQPGGSLTLSCAASGFTFSSYRMNWVRQAPGKGLEWVSYISSSRSAIYYADSVKGRFTISRDNAKNSLYLQMNSLRDEDTAVYYCATLGIGYWGQGTLVTVSS
VL: DIVMTQTPLSSPVTLGQPASISCRSSQSLVHSDGNTYLSWLQQRPGQPPRLLIYKISNRFSGVPDRFSGSGAGTDFTLKITRVEAEDVGIYYCMQVTQFPRTFGQGTKVEIR
B3: VY014 (antibody, V domains shown)
VH: EVQLVESGGGLVQPGGSLRLSCAASGFTFNNYDMHWVRQAAGKGLEWVSTIGAAGDTYYPGSVKGRFIISRENAKNSLYLQMNSLRAGDTAVYYCARAGETLEGATIGYYYGMDVWGQGTTVTVSS
VL: DILMTQSPLSLPVTPGEPASISCRSSQSLLHSNGYNYLDWYLQKPGQSPQLLIYLGSNRASGVPDRFSGSGSGTDFTLKFSRVEAEDVGLYYCMQALQIPLTFGGGTKVEIK

Assays:
[1] = molecular target: T1, Tau191-214 phospho-peptide (pS199) (human, phosphoserine at S199 of tau (peptide position 9); SCBio-4PEG label); test: BLI
T1 construct: also called pS199 peptide
T1 sequence (peptide, as listed by the source): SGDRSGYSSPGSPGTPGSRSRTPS

[2] = molecular target: T2, AT8 peptide (amino acids 195-215 of tau) (human, phospho-peptide, phosphorylated sites not stated in the example; immobilized on streptavidin tips); test: BLI (Octet), phospho-peptide on streptavidin tips
T2 peptide: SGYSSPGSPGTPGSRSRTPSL
Experimental: Briefly, phospho-peptides were immobilized on streptavidin biosensor tips and the binding ability of each antibody was assessed using an eight-point concentration gradient.

[3] = molecular target: T3, AT270 peptide (pT181; Tau172-186) (human); test: one point ELISA
T3 peptide: PAKTPPAPK[pT]PPSSG

iPHF = molecular target: T4, iPHF (UniProt P10636-8 2-441, limits assumed); test: BLI (Octet), antibody on biosensor tip, iPHF in solution
T4 construct: also called iPHF tau
T4 sequence (P10636 other isoform, or with tags, fused parts or gaps limits assumed): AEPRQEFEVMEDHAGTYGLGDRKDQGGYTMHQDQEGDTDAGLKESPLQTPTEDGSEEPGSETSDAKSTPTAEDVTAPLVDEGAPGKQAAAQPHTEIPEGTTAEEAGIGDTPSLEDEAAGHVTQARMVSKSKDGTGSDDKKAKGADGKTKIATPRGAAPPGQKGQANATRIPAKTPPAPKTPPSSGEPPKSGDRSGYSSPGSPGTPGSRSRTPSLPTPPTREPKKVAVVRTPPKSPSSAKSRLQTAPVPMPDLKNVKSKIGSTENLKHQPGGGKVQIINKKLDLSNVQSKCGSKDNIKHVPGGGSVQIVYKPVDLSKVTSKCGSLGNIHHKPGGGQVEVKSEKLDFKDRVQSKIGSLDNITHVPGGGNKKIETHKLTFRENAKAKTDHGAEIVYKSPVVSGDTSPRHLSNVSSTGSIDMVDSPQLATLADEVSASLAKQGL
Experimental: Anti-human tau antibodies were assessed for affinity for iPHF by Octet (ForteBio, Menlo Park, CA) analysis. A set of recombinant human IgG1 antibodies were prepared with clone-specific variable domain pairs selected from those presented in Table 1 and human IgG1 constant domains. Candidate antibodies were immobilized on biosensor tips (ForteBio) in kinetic buffer (ForteBio). Biosensor tips were then washed before introduction of a solution of iPHF in kinetic buffer for analysis of association and dissociation with candidate antibodies.

[4] = molecular target: enriched paired helical filament tau protein (ePHF; sarkosyl insoluble tau) (human, UniProt P10636 2-758); test: direct ELISA, ePHF coated
Chain of enriched paired helical filament tau protein (ePHF; sarkosyl insoluble tau) (P10636 other isoform, or with tags, fused parts or gaps limits assumed): as above
Experimental: (§1) A set of recombinant human IgG1 antibodies were prepared with clone-specific variable domain pairs selected from those presented in Table 1 and human IgG1 constant domains. These candidate antibodies were analyzed for binding to ePHF and specificity for ePHF over wild type tau by direct ELISA.
(§2) For direct ePHF and wildtype tau ELISA, plates were first coated with ePHF or wild type tau. Antigen solutions were prepared in PBS and 50 μL were pipetted into each well. Plates were covered and incubated for one hour at 37° C. or overnight at 4° C. Plates were then washed and blocked by addition of 150 μl of blocking buffer to each well and incubated one hour at room temperature. Plates were then washed before addition of serially diluted candidate antibody samples prepared in blocking buffer. Detection of candidate antibody binding was carried out by washing plates and adding a solution of enzyme-labeled secondary antibody in blocking buffer to each well. Secondary antibody binding was detected by addition of substrate and spectrophotometric analysis of resulting reaction product.

[5] = molecular target: T1, Tau191-214 phospho-peptide (pS199); test: one point ELISA
Source text: (§3) One-point ELISA was used to determine differential binding based on the individual phosphorylation patterns of each peptide. OD values (450 nm) were collected (as shown in Table 13), where a stronger positive signal is shown as a higher OD value, which is indicative of increased binding.

[6] = molecular target: Tau191-214 phospho-peptide (pS202) (human, phosphoserine at S202 of tau (peptide position 12); SCBio-4PEG label); test: one point ELISA
Source text: as §3

[7] = molecular target: Tau191-214 phospho-peptide (pS199/pT205) (human, phosphoserine at S199 and phosphothreonine at T205 of tau (peptide positions 9, 15); SCBio-4PEG label); test: one point ELISA
Source text: as §3

[8] = molecular target: Tau191-214 phospho-peptide (pT205) (human, phosphothreonine at T205 of tau (peptide position 15); SCBio-4PEG label); test: one point ELISA
Source text: as §3

[9] = molecular target: T5, pS199-old (SCBio-4PEG-Peptide, Tau191-214) (human, phosphoserine at S199 of tau by the row label; SCBio-4PEG label); test: one point ELISA
T5 construct: The suffix -old is not explained
Source text: as §3

[10] = molecular target: Tau191-214 phospho-peptide (pS199/pS202) (human, phosphoserine at S199 and S202 of tau (peptide positions 9, 12); SCBio-4PEG label); test: one point ELISA
Source text: as §3

wild type tau = molecular target: T6, wild type tau (human, UniProt P10636 2-758); test: direct ELISA, wild type tau coated
T6 construct: also called WT
T6 sequence (P10636 other isoform, or with tags, fused parts or gaps limits assumed): as above
Experimental: as §1, §2

Tau(pS404) peptide = molecular target: T7, Tau(pS404) peptide (human, phosphoserine at S404 of tau (peptide position 18)); test: competitive ELISA on TauS404 peptide, competitor AC04 peptide
T7 construct: also called TauS404 peptide; TauS404
T7 peptide: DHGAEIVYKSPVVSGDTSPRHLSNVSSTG

Binder	binding result [1]	binding result [2]	binding result [3]	Kd (iPHF)	Kd [2]	EC50 [4]	OD (450 nm) [5]	OD (450 nm) [6]	OD (450 nm) [7]	OD (450 nm) [8]	OD (450 nm) [9]	OD (450 nm) [10]	EC50 (wild type tau)	binding result (Tau(pS404) peptide)
B1	no binding	no binding	no binding	2.6 nM										
B2				4.6 nM	0.0124 nM	0.06 nM	0.065 OD450	0.065 OD450	0.119 OD450	0.06 OD450	0.062 OD450	0.082 OD450		
B3				5.3 nM		6.23 nM							0.04 nM	binds
